Patent publication WO2009138413A1 (dated 2009)

B1: DOM10-275-78 (VHH)
VHH: EVQLLESGGGLVQPGGSLRLSCVASGFTFDVAEMDWVRQAPGKGLEWVSTISPSRRGTYYADSVKGRFTISRDNSKNTLYLQMNSLRAEDTAVYYCAKAYTGRSLWGPGTLVTVSS
B2: DOM10-53-474 (VHH)
VHH: GVQLLESGGGLVQPGGSLRLSCAASGFTFAWYDMGWVRQAPGKGLEWVSSIDWHGEVTYYADSVKGRFTISRDNSKNTLYLQMNSLRAEDTAVYYCATAEDEPGYDYWGQGTLVTVSS

How the values were obtained:
[1] = biological target: human IL-13 (human, UniProt P35225 35-146); test: cell-based or functional assay
[2] = biological target: cynomolgus IL-13 (cynomolgus, UniProt Q0PW92 21-132); test: cell-based or functional assay
Chain of cynomolgus IL-13 (Q0PW92 entry or part of it): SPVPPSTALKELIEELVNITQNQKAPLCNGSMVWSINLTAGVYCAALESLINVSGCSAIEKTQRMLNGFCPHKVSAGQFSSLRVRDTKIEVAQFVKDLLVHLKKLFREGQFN

Chain of human IL-13 (P35225 35-146 limits assumed): as the sequence (Q0PW92 entry or part of it) above, with S1G, K10R, V42M, N67S, R83H, V100L counted along it

Binder | EC50, FIG. 1A HEK STAT6 assay with human IL-13, sample JAL050308_20p [1] [nM] | EC50, FIG. 1A HEK STAT6 assay with human IL-13, sample JAL050308_20s [1] [nM] | EC50, FIG. 1B HEK STAT6 assay with cynomolgus IL-13, sample JAL050308_20p [2] [nM] | EC50, FIG. 1B HEK STAT6 assay with cynomolgus IL-13, sample JAL050308_20s [2] [nM] | EC50, FIG. 1A HEK STAT6 assay with human IL-13 [1] [nM] | EC50, FIG. 1B HEK STAT6 assay with cynomolgus IL-13 [2] [nM]
B1 | 2.65 | 2.42 | 1.37 | 1.37 |  | 
B2 |  |  |  |  | 0.72 | 10.8
